# Results published in patent US11098081B2, “Epitope tag and method for detection and/or purification of tagged polypeptides” (ChromoTek GmbH, priority 2015, dated 2021).
# Several values for one entry are separate records, joined by “and”; a condition that tells them apart may be missing. Equal values may be shown once.
# Experiments:
# [1] = molecular target: T1, full-length β-catenin or domains (N-terminus aa 1-119, armadillo domain, C-terminus) (Homo sapiens, UniProt P35222); assay: Domain mapping of β-catenin binders (microsphere-based sandwich immunoassay); type: binding
# T1 construct: full-length β-catenin or the following domains of β-catenin: N-terminus aa 1-119; made in house; host or cells: E. coli BL21(DE3) CodonPlus-RIL
# T1 sequence (P35222 1-119): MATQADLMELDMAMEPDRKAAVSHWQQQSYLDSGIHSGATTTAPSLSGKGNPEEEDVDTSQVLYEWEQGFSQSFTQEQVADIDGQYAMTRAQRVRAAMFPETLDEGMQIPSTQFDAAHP
# Description: Microsphere-immobilized Nbs were incubated with GST-fusion constructs comprising full-length β-catenin or indicated domains. Captured β-catenin constructs were detected with domain-specific antibodies. For direct comparison, fluorescence intensities obtained with domain-specific antibodies were normalized to signals obtained with an anti-GST-antibody.
# BC2-Nb was covalently immobilized on microspheres using a modified manufacturer's protocol described in Poetz et al. ((2009) Microsphere-based co-immunoprecipitation in multiplex. Analytical biochemistry 395, 244-248). Immobilized BC2-Nb was incubated with purified proteins representing full-length β-catenin or the following domains of β-catenin: N-terminus aa 1-119, armadillo domain aa 120-683 and C-terminus aa 683-781. Purified Glutathion-S-transferase (GST) was used as a negative control. Concentrations range from 0.25 μg/ml to 2 μg/ml. Bound proteins were detected with domain-specific antibodies including ABC antibody clone 8E7 (Merck Millipore) specific for the N-terminus, anti-β-catenin 9G10 (Merck Millipore) targeting the armadillo domain and anti-β-catenin clone 14 (Becton Dickinson) specifically recognizing the C-terminus. To detect unspecific binding of the BC2-Nb to GST an antibody against GST (6G9, ChromoTek) was used. […] The microspheres were measured in a FlexMap 3D instrument (Luminex). […]
# [2] = system: peptides of the β-catenin N-terminus (aa 1-127); assay: Epitope mapping (pepscan) with biotinylated BC2-Nb on peptide-coated microspheres; type: binding, human
# From the text: (SEQ ID NO: 4), […] […] (SEQ ID NO: 65).
# As negative controls, microspheres comprising Ovalbumin and the Myc-peptide ([…]) covalently coupled to OVA-microspheres were used.
# [3] = molecular target: GFP with a C-terminal BC2-tag (GFPBC2T) (Aequorea victoria, UniProt P42212, F64L/H231L/S65T)
# Description: For surface plasmon resonance spectroscopy (SPR)-based affinity measurements. […] The obtained data sets were evaluated using the 1:1 Langmuir binding model with mass transfer. As a control.
# The affinity measurements of the BC2 nanobody and the indicated mutants thereof to GFPBC2T were performed using surface plasmon resonance spectroscopy with a Biacore 3000 instrument (GE-Healthcare). GFPBC2T was covalently coupled on dextran fibers of a CM5 sensorchip (GE Healthcare) to a response level of 500 RU. One flow cells was activated and blocked in the absence of protein to determine background, another was loaded with untagged GFP as a control against unspecific binding. […] Each measurement was done in duplicates. As running dilution buffer 10 mM HEPES pH 7.4, 150 mM NaCl, 0.5% surfactant Tween was used. Measurements were performed at 25° C. For the association of BC2-Nb a How rate of 50 μl/min for 15 s and for the dissociation a flow rate of 50 μl/min for 600 s was applied. The regeneration was induced by injection of 23 μl regeneration solution at a flow rate of 30 μl/min. As regeneration solution 10 mM glycine-HCl pH 2.0 was used. The data was evaluated using the software Bia evaluation 4.1 and the 1:1 Langmuir binding model with mass transfer.
# [4] = system: HeLa cells expressing mCherry-VIMBC2T or GFP-PCNABC2T; assay: Immunocytochemistry with fluorescently labeled BC2-Nb; type: cell-based, human; conditions: mCherry-VIMBC2T (AF488) or GFP-PCNABC2T (ATTO647)
# From the text: (b) HeLa cells ectopically expressing mCherry-VIMBC2T or eGFP-PCNABC2T were fixed either with methanol or PFA, respectively, followed by staining with the indicated fluorescently labeled BC2-Nbs and DAPI. Scale bar 25 μm.
# HeLa cells ectopically expressing untagged mCherry-VIM or eGFP-PCNA were fixed with methanol or PFA, respectively, and stained with the indicated fluorescently labeled BC2-Nbs and DAPI. Scale bar 25 μm.
# For immunocytochemistry 5-10×10^3 adherent HeLa cells per well of a μClear 96 well plate (Greiner) were transfected with plasmids coding for C-terminally BC2-tagged vimentin or PCNA After 24 h, cells were washed once with PBS and fixed with 4% w/v paraformaldehyde (PFA) in PBS for 15 mm at RT or with methanol for 15 mm at −20° C. After removal of the fixative and washing twice with PBS, cells were blocked and permeabilized with 3% w/v BSA and 0.1% v/v Triton X-100 in PBS for 1 h at RT Subsequently, labeled BC2 nanobody was added with a final concentration of 10-15 μg/ml and 4′,6-diamidino-2-phenyl indole (DAPI, Sigma Aldrich) with a final concentration of 1 μg/ml for overnight incubation at 4° C. Unbound nanobody and DAPI were removed by washing 3 limes with a mixture of PBS and 6% v/v 5 M NaCl in H2O. Images of FIG. 4 b and FIG. 10 b were acquired with an Image Xpress micro XL system. Confocal images of FIG. 10 a were acquired with an ImageXpress Micro Confocal.
# [5] = system: BC2-tagged proteins (eGFP-PCNABC2T, mCherry-VIMBC2T); assay: Western blot detection with fluorescently labeled BC2-Nb; type: binding
# Description: (b) For Western blot detection using fluorescently labeled B2-Nb (BC2-NbAF488) indicated amounts of the input fractions (as shown in (a)) were subjected to SDS-PAGE and immunoblotting. The Western blots were probed with BC2-N488 followed by detection with anti-PCNA (left panel) or anti-Vimentin (right panel) antibodies. As loading control blots were probed with an anti-GAPDH antibody (lower panel).
# Denaturing polyacrylamide gel electrophoresis (SDS-PAGE) was performed according to standard procedures Protein samples were boiled in 2× SDS-sample buffer (60 mM Tris/HCl, pH 6.8; 2% (w/v) SDS; 5% (v/v) 2-mercaploethanol, 10% (v/v) glycerol, 0.02% bromophenole blue). For immunoblotting proteins were transferred on nitrocellulose membranes (Bio-Rad Laboratories).
# Purified BC2 nanobody (1 mg) was labeled with the NHS-activated fluorescent dyes Alexa488 (Life technologies) or Atto647 (Atto-Tec) according to manufacturer's guidelines. After coupling, unbound dye was removed by separation on PD-10 Desalting Columns (GE Healthcare). For immunoblot analysis. 5 μg of BC2-NbAF488 was diluted in 4 ml 3% BSA diluted in TBS, 0.05% Tween20 and Western blots were incubated for 1 h at RT.
Molecule,β-catenin domain recognized [1],binding to epitope peptide with phosphorylated Ser23 [2],binding to overlapping 15-mer peptides ([2]; 29 peptides covering aa 1-127),amino acid sequence recognized (minimal epitope) ([2]; N- and C-terminally truncated peptides),"Rmax [RU] ([3]; SPR, GFPBC2T on CM5 chip, 1:1 Langmuir binding model with mass transfer)","Kd ([3]; SPR, GFPBC2T on CM5 chip, 25° C., 1:1 Langmuir binding model with mass transfer)","kon (M^−1s^−1) ([3]; SPR, association rate constant)","koff (s^−1) ([3]; SPR, dissociation rate constant)","fold higher affinity compared to FLAG, HA, c-myc or EPEA systems ([3]; comparison with literature values of prior-art tag systems)",co-localization with BC2-tagged protein in fixed HeLa cells [4],signal for endogenous β-catenin in Western blot ([5]; in the presence of BC2-tagged proteins),specificity in Western blot detection ([5]; untagged proteins not detected)
"BC2-Nb: nanobody; variable region of a heavy chain antibody of Camelidae, 122 aa, SEQ ID NO: 6, binds the BC2 epitope tag (protein, BC2-Nb) VHH: QVQLVESGGGLVQPGGSLTLSCTASGFTLDHYDIGWFRQAPGKEREGVSCINNSDDDTYYADSVKGRFTIFMDNAKDTVYLQMNSLKPEDTAIYYCAEARGCKRGRYEYDFWGQGTQVTVSS",exclusively recognizes the N-terminal domain (aa 1-119),completely abolishes binding,strong binding to two consecutive peptides comprising the residues 13-31,PDRKAAVSHWQQ,170 ± 0.34,1.4 nM and ~1.4 nM,4.6 ± 0.04 × 10^5 M^−1s^−1,6.4 ± 0.27 × 10^−4 s^−1,10-100 fold,–,–,–
"BC2-NbATTO647: BC2-Nb coupled to the organic dye ATTO647 (conjugate, left off: small tags and cut ends, BC2-Nb coupled to the organic dye ATTO647) VHH: QVQLVESGGGLVQPGGSLTLSCTASGFTLDHYDIGWFRQAPGKEREGVSCINNSDDDTYYADSVKGRFTIFMDNAKDTVYLQMNSLKPEDTAIYYCAEARGCKRGRYEYDFWGQGTQVTVSS",–,–,–,–,–,–,–,–,–,clear co-localization,–,–
"BC2-NbAF488: BC2-Nb chemically coupled to the organic dye AlexaFluor488 (conjugate, left off: small tags and cut ends, BC2-Nb chemically coupled to the organic dye AlexaFluor488) VHH: QVQLVESGGGLVQPGGSLTLSCTASGFTLDHYDIGWFRQAPGKEREGVSCINNSDDDTYYADSVKGRFTIFMDNAKDTVYLQMNSLKPEDTAIYYCAEARGCKRGRYEYDFWGQGTQVTVSS",–,–,–,–,–,–,–,–,–,strong co-localization,no signal for β-catenin was detected,highly specific for BC2-tagged proteins
